Source: article PMC6009593 (Nucleic Acids Research, 2018)

B1: PIP-like Mre11 peptide (PfuMre11 412–424) (peptide)
peptide: Ac-KKKRGTLDSWLGG-NH2
B2: Pyrococcus furiosus Proliferating Cell Nuclear Antigen (PfuPCNA) (natural protein)
chain: MPFEIVFEGAKEFAQLIDTASKLIDEAAFKVTEDGISMRAMDPSRVVLIDLNLPSSIFSKYEVVEPETIGVNMDHLKKILKRGKAKDTLILKKGEENFLEITIQGTATRTFRVPLIDVEEMEVDLPELPFTAKVVVLGEVLKDAVKDASLVSDSIKFIARENEFIMKAEGETQEVEIKLTLEDEGLLDIEVQEETKSAYGVSYLSDMVKGLGKADEVTIKFGNEMPMQMEYYIRDEGRLTFLLAPRVEE

Legend:
[1] = biological target: B2; assay: SPR
[2] = biological target: Pyrococcus furiosus Mre11–Rad50 complex, wild type, full length (PfuMR wt) (Pyrococcus furiosus, UniProt Q8U1N9 1-426; P58301 1-882); assay: SPR
Pyrococcus furiosus Mre11–Rad50 complex, wild type, full length (PfuMR wt), sequence (P58301 whole entry, one chain of several): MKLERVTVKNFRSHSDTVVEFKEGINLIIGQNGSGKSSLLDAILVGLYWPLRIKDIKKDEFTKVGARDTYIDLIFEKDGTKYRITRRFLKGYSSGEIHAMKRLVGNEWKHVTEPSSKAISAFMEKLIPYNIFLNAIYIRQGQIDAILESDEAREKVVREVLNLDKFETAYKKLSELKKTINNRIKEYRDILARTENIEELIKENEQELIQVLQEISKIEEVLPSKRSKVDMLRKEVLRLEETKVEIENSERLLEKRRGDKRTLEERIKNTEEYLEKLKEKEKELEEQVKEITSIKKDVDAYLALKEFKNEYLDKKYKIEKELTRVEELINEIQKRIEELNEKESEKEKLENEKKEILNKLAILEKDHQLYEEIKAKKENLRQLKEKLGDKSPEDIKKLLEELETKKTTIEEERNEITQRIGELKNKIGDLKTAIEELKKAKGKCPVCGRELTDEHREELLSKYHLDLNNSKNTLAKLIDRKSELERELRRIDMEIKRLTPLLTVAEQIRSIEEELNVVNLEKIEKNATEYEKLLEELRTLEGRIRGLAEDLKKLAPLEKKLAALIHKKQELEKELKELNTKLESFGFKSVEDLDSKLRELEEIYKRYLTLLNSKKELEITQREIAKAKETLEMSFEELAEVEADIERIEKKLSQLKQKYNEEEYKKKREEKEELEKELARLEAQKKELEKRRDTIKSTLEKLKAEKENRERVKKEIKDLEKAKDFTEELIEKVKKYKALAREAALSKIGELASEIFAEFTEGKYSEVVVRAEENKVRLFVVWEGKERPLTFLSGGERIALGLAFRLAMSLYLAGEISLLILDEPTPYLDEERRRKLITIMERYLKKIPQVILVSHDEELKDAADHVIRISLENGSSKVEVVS

Binder	Kd [1] [nM]	Kd [2] [nM]
B1	4050	
B2		~4.07
